{"source": "patent US8133978", "biological_target": "Human interleukin-18 (recombinant human IL-18) (human) (UniProt Q14116)", "sequence (Q14116 37-193 limits assumed)": "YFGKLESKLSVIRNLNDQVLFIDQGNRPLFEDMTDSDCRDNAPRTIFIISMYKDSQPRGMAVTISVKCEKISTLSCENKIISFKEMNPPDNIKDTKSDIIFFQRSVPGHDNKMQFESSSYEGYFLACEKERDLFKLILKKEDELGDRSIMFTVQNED", "assay": "cell-based or functional assay"}
{"substance": "IL-18 bp (IL-18 binding protein as used in the bioassays) (from UniProt O95998 31-194)", "values": [{"measurement": "IC50, LPS-stimulated IFNγ release, human PBMC, Donor 1 10% serum", "value": 0.024}, {"measurement": "IC50, LPS-stimulated IFNγ release, human PBMC, Donor 1 25% serum", "value": 0.064}, {"measurement": "IC50, LPS-stimulated IFNγ release, human PBMC, Donor 3 10% serum", "value": 0.032}, {"measurement": "IC50, LPS-stimulated IFNγ release, human PBMC, Donor 3 25% serum", "value": 0.046}, {"measurement": "complete inhibition of IL-18 mediated IFNγ release, LPS-stimulated human PBMC, 10% or 25% human serum", "value": "> 1", "unit": "µg/mL"}]}
